Results as given in paper PMC12647017, “Discovery and optimization of a synthetic small protein domain targeting antibodies” (Frontiers in Bioengineering and Biotechnology, 2025).
Values belong to the molecule of their own block, whether it stands above or below them.

How the values were obtained:
hIgG = experiment: ELISA of soluble fractions of native and mutated WW domains against hIgG; type: binding; settings: human IgG, soluble fraction, ABTS
Procedure: The soluble fraction of 100 mL cultures (100 μL) was used for ELISA against hIgG, as described in ([Dias et al., 2025]). Briefly, the target hIgG was immobilized (1 μg/well) in 0.1 M Sodium Bicarbonate pH 8.6 in Immuno Maxisorp ELISA plates (Thermo Fisher), overnight at 4 °C. In the next day, the unbound hIgG was removed, and the wells washed with PBS1x. To the wells was added the blocking solution – 5% (v/v) Soya Milk in PBS 1x and incubated for 1 h at room temperature. The wells were washed and incubated with 100 µL of soluble fraction (∼0.065 mg/mL total protein) at room temperature for 2 h.
The unbound WW domains were removed, and the wells were washed using 4 times PBS1x-0.05% Tween 20 and 1 time with PBS1x. For detection was used 1:1,000 anti-His-HRP conjugated antibody (MA1-21315-HRP, Invitrogen) in 1% (v/v) Soya Milk in PBS1x and incubated for 1 h at RT, after that the wells were washed with 5x PBS1x. The detection occurred with ABTS (2,2′-azino-bis(3-ethylbenzothiazoline-6-sulfonic acid) ready solution (11684302001, Roche), which was incubated in the dark for 1 h at 37 °C. Finally, the results were analysed in a microplate reader (Tecan) with appropriate filter at Abs405nm.
Figure S6 – Production and signal characterization of mutated versions. A – Tris-Tricine gels after cell lysis of the WW prototype sequence (WWp, band at ~8KDa), mutated WWp5_4 scaffold (WWp5_4_M2, band at ~8 kDa) and mutated E6 (E6_M2, band at ~ 12kDa). Samples were normalized 90µg total protein/lane. M - Precision Plus Protein™ Dual Xtra Prestained, Biorad; SF – soluble fraction; ISF – insoluble fraction. B1, B2, and B3 indicate production batchs in 1L culture, except for WWp B1 – 100 mL, WWp_5_4 B2 – 900 mL. Stained with Simplyblue. […] The detection of the clones was made with anti-His conjugated antibody with HRP and detected with ABTS as substrate.
Figure S7 – Comparison between ELISA signal of E6 versus E6_M2. […] The expression levels were detected by direct coating of the microplate well with the soluble fraction of the extract. […] All were detected with ABTS as substrate.

[1] = Solubility / precipitation observed during production, dialysis and purification; type: physicochemical
Procedure: Therefore, after expression the soluble fractions were further centrifuged at 42,000 g for 20 min at 4 °C. As the samples were diluted (∼5 mg/mL in 25 mL lysis buffer), the soluble fractions were lyophilized and resuspended in 4 mL of water. The samples were dialyzed (Membranes Spectra Pre-Treated 1 kDa, Carl Roth) to Binding buffer without imidazole (20 mM Sodium Phosphate, 500 mM Sodium Chloride pH 7.4) for 24 h at 16 °C. The samples were quantified by […] (typically ∼6 mg/mL), this solution was diluted 1:2 in Binding buffer (20 mM Sodium Phosphate, 500 mM Sodium Chloride, 20 mM imidazole pH 7.4) and purified in a gravitational flow with 6 mL of resin (IMAC Sepharose 6 Fast Flow (Ni^2+), Cytiva) packed in a PD-10 column. The column was prepared using the indications of the manufacturer. The binding of the protein to the column was maximized by an incubation for 1 h at room temperature in agitation at 40rpm. The resin was washed 4 x column volumes (CV) with binding buffer. The elution as achieved by incubation for 15min with elution buffers. We used a gradient with 3 x CV elution buffer 1 (binding buffer with 100 mM imidazole) and 3 x CV elution buffer 2 (binding buffer with 200 mM imidazole).
The most enriched elutions in WW domains (60%–70% purity) were combined and dialysed against PBS1x (10 mM Na2HPO4, 1.8 mM KH2PO4, 2.7 mM KCl, 137 mM NaCl pH 7.4) with routine changes of buffer up to 48 h at 16 °C. Following the samples were concentrated with a Amicon-Ultra15 3 kDa MWCO (Millipore) with centrifugation conditions 4,900 g, 30 min, 4 °C. The final samples were quantified by BCA assay.
Size Exclusion Chromatography (SEC). The samples were further purified by SEC to achieve 90% purity in a AKTA system (Cytiva). The column Superdex 75 Increase 10/300 GL (29148721, Cytiva) was washed with water and equilibrated 2CV in PBS1x, as described by the manufacturer. As calibrants we prepare a mixture: 2 mg/mL of Bovine Serum Albumin (66 kDa, BP9702-100, FisherScientific), Ovalbumin (42 kDa, A5503-1G, Sigma), Chicken Lysozyme ([…], 62,971–10G-F, Fluka) and hPin1_WW chemically synthesized (5 kDa, produced in ([Dias et al., 2015])) in PBS 1x, this sample was filtered with 0.2 µm PES (514–0073, VWR) and analysed. The operation conditions: flow 0.5 mL/min, 0.05 CV in PBS1x and injection of 250 µL and run for 2 CV with PBS 1x at 16 °C. The same method was used for the WW domain samples. After purifications samples were quantified for total protein by BCA assay, as described previously and used for characterization.

[2] = target: human IgG conjugated with fluorescein isothiocyanate (IgG-FITC) (human); experiment: MST; IgG-FITC fixed at 50 nM; 16 serial dilutions of E6 from 23.5 uM to 0.7 nM; 50 mM MOPS, 0.05% Tween-20, pH 7; 25 C; fit models Kd and Hill
[3] = target: human IgG conjugated with fluorescein isothiocyanate (IgG-FITC) (human); experiment: MST; hIgG-FITC (Sigma F9636) fixed at 25 nM; 16 samples of E6_M2_T2 from 695 nM in 1:2 serial dilution; PBS, 0.05% Tween-20, pH 7.4; 25 C; fit models Kd and Hill

Molecule: C S GK LPPGW E E R KTRRFKLG R TYYYNHHILSKTS Q W EH PR G SS [Clone E6_M2, E6 with mutated framework and N-terminal Cys]
- binding signal relative to negative control (E. coli Rosetta extract) (hIgG; E6 detected with anti-HA-HRP, E6_M2 and Rosetta extract with anti-His-HRP): 2 times
- binding signal relative to scaffold framework (WWp5_4) (hIgG; anti-His-HRP, Abs405nm): 2 times
- solubility compared with native counterpart E6 ([1]; IMAC purification without chaotropic agents): higher solubility than the native counterpart
- precipitation / solubility after dialysis ([1]; dialysis against PBS1x pH 7.4, up to 48 h at 16 °C): some precipitation

- EC50 [2]: 146 nM
- Kd [2]: 133 nM
Molecule: SMGLPPGWDEYKTRRFKLGKTYYYNHHILSKTSTWTDPRMSS (designed binder) [E6 (lead ligand, WWp5_4 scaffold), without tag]

- EC50 [3]: 157 nM
- Kd [3]: 62 nM
B1: E6_M2_T2 (head-to-tail dimer of E6_M2) (designed binder)
chain: CSGKLPPGWEERKTRRFKLGRTYYYNHHILSKTSQWEHPRGSSSGKLPPGWEERKTRRFKLGRTYYYNHHILSKTSQWEHPRGSS
